Results as given in the RNAGym collection of RNA variant scans (doi:10.7554/elife.80360).

B1: HDV Ribozyme (parent)
chain: GGCCGGCAUGGUCCCAGCCUCCUCGCUGGCGCCGGCUGGGCAACAUUCCGAGGGGACCGUCCCCUCGGUAAUGGCGAAUGGGACCCA

Variants of: B1
Experiment: self-cleavage, relative activity (ratio to wild type); higher = more cleavage; co-transcriptional

Variant	self-cleavage
GGCCGGCAUGGUCCCAGCCUCCUCGCUGGCGCCGGCUGGGCAAAAUUCCGAGGGGACCGUCCGCUCGGUAAUGGCGAAUGGGACCCA [C44A C63G]	0.831
GGCCGGCAUGGUCCCAGCCUCCUCGCUGGCGCCGGCUGGGCAAAAUUCCGAGGGGACCGUCCUCUCGGUAAUGGCGAAUGGGACCCA [C44A C63U]	0.973
GGCCGGCAUGGUCCCAGCCUCCUCGCUGGCGCCGGCUGGGCAAAAUUCCGAGGGGACCGUCCCCUCGGUAAUGGCGAAUGGGACCCA [C44A]	0.764
GGCCGGCAUGGUCCCAGCCUCCUCGCUGGCGCCGGCUGGGCAAAAUUCCGAGGGGACCGUCCCCUCGGUAUUGGCGAAUGGGACCCA [C44A A71U]	0.81
GGCCGGCAUGGUCCCAGCCUCCUCGCUGGCGCCGGCUGGGCAUCAUUCCGAGGGGACCGUCCCCUCGGUAAUGGCGAAUUGGACCCA [A43U G80U]	0.173
GGCCGGCAUGGUCCCAGCCUCCUCGCUGGCGCCGGCUGGGCAUCAUUCCGAGGGGACCGUCCCCUCGGUAAUGGCGAAUCGGACCCA [A43U G80C]	0.115
GGCCGGCAUGGUCCCAGCCUCCUCGCUGGCGCCGGCUGGGCAUCAUUCCGAGGGGACCGUCCCCUCGGUAAUGGCGAAUAGGACCCA [A43U G80A]	0.0237
GGCCGGCAUGGUCCCAGCCUCCUCGCUGGCGCCGGCUGGGCAAAAUUCCGAGGGGACCGUCGCCUCGGUAAUGGCGAAUGGGACCCA [C44A C62G]	0.162
GGCCGGCAUGGUCCCAGCCUCCUCGCUGGCGCCGGCUGGGCAAAAUUCCGAGGGGACCGUCACCUCGGUAAUGGCGAAUGGGACCCA [C44A C62A]	0.708
GGCCGGCAUGGUCCCAGCCUCCUCGCUGGCGCCGGCUGGGCAAAAUUCCGAGGGGACCGUCUCCUCGGUAAUGGCGAAUGGGACCCA [C44A C62U]	0.723
GGCCGGCAUGGUCCCAGCCUCCUCGCUGGCGCCGGCUGGGCAAAAUUCCGAGGGGACCGUCCCCUCGGUAAUGGCGUAUGGGACCCA [C44A A77U]	0.203
GGCCGGCAUGGUCCCAGCCUCCUCGCUGGCGCCGGCUGGGCAAAAUUCCGAGGGGACCGUCCCCUCGGUAAUGGCGGAUGGGACCCA [C44A A77G]	0.396
GGCCGGCAUGGUCCCAGCCUCCUCGCUGGCGCCGGCUGGGCAAAAUUCCGAGGGGACCGUCCCCUCGGUAAUGGCGCAUGGGACCCA [C44A A77C]	0.128
GGCCGGCAUGGUCCCAGCCUCCUCGCUGGCGCCGGCUGGGCAAAAUUCCGAGGGGACCGUCCCCUCGGUAAUGGCGAUUGGGACCCA [C44A A78U]	0.104
GGCCGGCAUGGUCCCAGCCUCCUCGCUGGCGCCGGCUGGGCAAAAUUCCGAGGGGACCGUCCCCUCGGUAAUGGCGAGUGGGACCCA [C44A A78G]	0.175
GGCCGGCAUGGUCCCAGCCUCCUCGCUGGCGCCGGCUGGGCAAAAUUCCGAGGGGAGCGUCCCCUCGGUAAUGGCGAAUGGGACCCA [C44A C57G]	0.684
GGCCGGCAUGGUCCCAGCCUCCUCGCUGGCGCCGGCUGGGCAAAAUUCCGAGGGGAACGUCCCCUCGGUAAUGGCGAAUGGGACCCA [C44A C57A]	0.752
GGCCGGCAUGGUCCCAGCCUCCUCGCUGGCGCCGGCUGGGCAAAAUUCCGAGGGGACCGUCCCCUCGGUAAUGGGGAAUGGGACCCA [C44A C75G]	0.369
GGCCGGCAUGGUCCCAGCCUCCUCGCUGGCGCCGGCUGGGCAAAAUUGCGAGGGGACCGUCCCCUCGGUAAUGGCGAAUGGGACCCA [C44A C48G]	0.594
GGCCGGCAUGGUCCCAGCCUCCUCGCUGGCGCCGGCUGGGCAAAAUUUCGAGGGGACCGUCCCCUCGGUAAUGGCGAAUGGGACCCA [C44A C48U]	0.692
GGCCGGCAUGGUCCCAGCCUCCUCGCUGGCGCCGGCUGGGCAUCAUUCCGAGGGGACCGUCCCCUCGAUAAUGGCGAAUGGGACCCA [A43U G68A]	0.408
GGCCGGCAUGGUCCCAGCCUCCUCGCUGGCGCCGGCUGGGCAUCAUUCCGAGGGGACCGUCCCCUCGCUAAUGGCGAAUGGGACCCA [A43U G68C]	0.198

Variant	self-cleavage
GGCCGGCAUGGUCCCAGCCUCCUCGCUGGCGCCGGCUGGGCAAAAUUCCGCGGGGACCGUCCCCUCGGUAAUGGCGAAUGGGACCCA [C44A A51C]	0.779
GGCCGGCAUGGUCCCAGCCUCCUCGCUGGCGCCGGCUGGGCAUCAUUCCGAGGGGACCGUCCCCUCGGAAAUGGCGAAUGGGACCCA [A43U U69A]	0.449
GGCCGGCAUGGUCCCAGCCUCCUCGCUGGCGCCGGCUGGGCAUCAUUCCGAGGGGACCGUCCCCUCGGGAAUGGCGAAUGGGACCCA [A43U U69G]	0.199
GGCCGGCAUGGUCCCAGCCUCCUCGCUGGCGCCGGCUGGGCAAAUUUCCGAGGGGACCGUCCCCUCGGUAAUGGCGAAUGGGACCCA [C44A A45U]	0.95
GGCCGGCAUGGUCCCAGCCUCCUCGCUGGCGCCGGCUGGGCAAAGUUCCGAGGGGACCGUCCCCUCGGUAAUGGCGAAUGGGACCCA [C44A A45G]	1.01
GGCCGGCAUGGUCCCAGCCUCCUCGCUGGCGCCGGCUGGGCAAAAUUCCGAGGGGACCGUGCCCUCGGUAAUGGCGAAUGGGACCCA [C44A C61G]	0.608
GGCCGGCAUGGUCCCAGCCUCCUCGCUGGCGCCGGCUGGGCAAAAUUCCGAGGGGACCGUACCCUCGGUAAUGGCGAAUGGGACCCA [C44A C61A]	0.618
GGCCGGCAUGGUCCCAGCCUCCUCGCUGGCGCCGGCUGGGCAAAAUUCCGAGGGGACCGUUCCCUCGGUAAUGGCGAAUGGGACCCA [C44A C61U]	0.758
GGCCGGCAUGGUCCCAGCCUCCUCGCUGGCGCCGGCUGGGCAUCACUCCGAGGGGACCGUCCCCUCGGUAAUGGCGAAUGGGACCCA [A43U U46C]	0.383
GGCCGGCAUGGUCCCAGCCUCCUCGCUGGCGCCGGCUGGGCAUCAGUCCGAGGGGACCGUCCCCUCGGUAAUGGCGAAUGGGACCCA [A43U U46G]	0.185
GGCCGGCAUGGUCCCAGCCUCCUCGCUGGCGCCGGCUGGGCAUCAUUCCGAGGGGACCGUCCCCUCGGUAAUGGCCAAUGGGACCCA [A43U G76C]	0.181
GGCCGGCAUGGUCCCAGCCUCCUCGCUGGCGCCGGCUGGGCAUCAUUCCGAGGGGACCGUCCCCUCGGUAAUGGCUAAUGGGACCCA [A43U G76U]	0.307
GGCCGGCAUGGUCCCAGCCUCCUCGCUGGCGCCGGCUGGGCAUCAUCCCGAGGGGACCGUCCCCUCGGUAAUGGCGAAUGGGACCCA [A43U U47C]	0.554
GGCCGGCAUGGUCCCAGCCUCCUCGCUGGCGCCGGCUGGGCAUCAUACCGAGGGGACCGUCCCCUCGGUAAUGGCGAAUGGGACCCA [A43U U47A]	0.271
GGCCGGCAUGGUCCCAGCCUCCUCGCUGGCGCCGGCUGGGCAUCAUUCCGAGGGGACCGUCCCCUCGGUAAUGGCGAAUGGCACCCA [A43U G82C]	0
GGCCGGCAUGGUCCCAGCCUCCUCGCUGGCGCCGGCUGGGCAUCAUUCCGAGGGGACCGUCCCCUCGGUAAUGGCGAAUGGUACCCA [A43U G82U]	0.0923
GGCCGGCAUGGUCCCAGCCUCCUCGCUGGCGCCGGCUGGGCAUCAUUCCGAGGGGACCGUCCCCUCCGUAAUGGCGAAUGGGACCCA [A43U G67C]	0.354
GGCCGGCAUGGUCCCAGCCUCCUCGCUGGCGCCGGCUGGGCAUCAUUCCGAGGGGACCGUCCCCUCUGUAAUGGCGAAUGGGACCCA [A43U G67U]	0.499
GGCCGGCAUGGUCCCAGCCUCCUCGCUGGCGCCGGCUGGGCAUCAUUCCGAGGGGACCGUCCCCUCAGUAAUGGCGAAUGGGACCCA [A43U G67A]	0.237
GGCCGGCAUGGUCCCAGCCUCCUCGCUGGCGCCGGCUGGGCAAAAUUCCGAGGGGCCCGUCCCCUCGGUAAUGGCGAAUGGGACCCA [C44A A56C]	0.853
GGCCGGCAUGGUCCCAGCCUCCUCGCUGGCGCCGGCUGGGCAUCAUUCCGAGGGGACCGUCCCCUCGGUAAUGACGAAUGGGACCCA [A43U G74A]	0.261
GGCCGGCAUGGUCCCAGCCUCCUCGCUGGCGCCGGCUGGGCAUCAUUCCGAGGGGACCGUCCCCUCGGUAAUGUCGAAUGGGACCCA [A43U G74U]	0.684

Variant	self-cleavage
GGCCGGCAUGGUCCCAGCCUCCUCGCUGGCGCCGGCUGGGCAAAAUUCCGAGGGGACCGUCCCCUCGGUAAUGGCGAAUGGGAACCA [C44A C84A]	0.541
GGCCGGCAUGGUCCCAGCCUCCUCGCUGGCGCCGGCUGGGCAAAAUUCCGAGGGGACGGUCCCCUCGGUAAUGGCGAAUGGGACCCA [C44A C58G]	0.831
GGCCGGCAUGGUCCCAGCCUCCUCGCUGGCGCCGGCUGGGCAUCAUUCCGAGGGGACCGUCCCCUCGGUAAUGGCGAAUGAGACCCA [A43U G81A]	0.148
GGCCGGCAUGGUCCCAGCCUCCUCGCUGGCGCCGGCUGGGCAUCAUUCCGAGGGGACCGUCCCCUCGGUAAUGGCGAAUGUGACCCA [A43U G81U]	0.16
GGCCGGCAUGGUCCCAGCCUCCUCGCUGGCGCCGGCUGGGCAUCAUUCCGAGGGGACCGGCCCCUCGGUAAUGGCGAAUGGGACCCA [A43U U60G]	0.394
GGCCGGCAUGGUCCCAGCCUCCUCGCUGGCGCCGGCUGGGCAUCAUUCCGAGGGGACCGCCCCCUCGGUAAUGGCGAAUGGGACCCA [A43U U60C]	0.678
GGCCGGCAUGGUCCCAGCCUCCUCGCUGGCGCCGGCUGGGCAAAAUUCCGAGGGGACCGUCCCCUAGGUAAUGGCGAAUGGGACCCA [C44A C66A]	0.628
GGCCGGCAUGGUCCCAGCCUCCUCGCUGGCGCCGGCUGGGCAAAAUUCCGAGGGGACCGUCCCCUGGGUAAUGGCGAAUGGGACCCA [C44A C66G]	0.898
GGCCGGCAUGGUCCCAGCCUCCUCGCUGGCGCCGGCUGGGCAAAAUUCAGAGGGGACCGUCCCCUCGGUAAUGGCGAAUGGGACCCA [C44A C49A]	0.554
GGCCGGCAUGGUCCCAGCCUCCUCGCUGGCGCCGGCUGGGCAAAAUUCUGAGGGGACCGUCCCCUCGGUAAUGGCGAAUGGGACCCA [C44A C49U]	0.462
GGCCGGCAUGGUCCCAGCCUCCUCGCUGGCGCCGGCUGGGCAAAAUUCGGAGGGGACCGUCCCCUCGGUAAUGGCGAAUGGGACCCA [C44A C49G]	0.511
GGCCGGCAUGGUCCCAGCCUCCUCGCUGGCGCCGGCUGGGCAAAAUUCCGAGGGGACCGUCCCAUCGGUAAUGGCGAAUGGGACCCA [C44A C64A]	0.665
GGCCGGCAUGGUCCCAGCCUCCUCGCUGGCGCCGGCUGGGCAAAAUUCCGAGGGGACCGUCCCGUCGGUAAUGGCGAAUGGGACCCA [C44A C64G]	0.814
GGCCGGCAUGGUCCCAGCCUCCUCGCUGGCGCCGGCUGGGCAAAAUUCCGAGGGGACCGUCCCCUCGGUAAUGGCGAAUGGGACCCC [C44A A87C]	0.74
GGCCGGCAUGGUCCCAGCCUCCUCGCUGGCGCCGGCUGGGCAAAAUUCCGAGGGGACCGUCCCCUCGGUAAUGGCGAAUGGGUCCCA [C44A A83U]	0.0615
GGCCGGCAUGGUCCCAGCCUCCUCGCUGGCGCCGGCUGGGCAAAAUUCCGAGGGGACCGUCCCCUCGGUAAUGGCGAAUGGGCCCCA [C44A A83C]	0.269
GGCCGGCAUGGUCCCAGCCUCCUCGCUGGCGCCGGCUGGGCAUCAUUCCGAGGGGACCGUCCCCACGGUAAUGGCGAAUGGGACCCA [A43U U65A]	0.584
GGCCGGCAUGGUCCCAGCCUCCUCGCUGGCGCCGGCUGGGCAUCAUUCCGAGGGGACCGUCCCCCCGGUAAUGGCGAAUGGGACCCA [A43U U65C]	0.298
GGCCGGCAUGGUCCCAGCCUCCUCGCUGGCGCCGGCUGGGCAUCAUUCCGAGGGGACCGUCCCCUCGGUAAGGGCGAAUGGGACCCA [A43U U72G]	0.256
GGCCGGCAUGGUCCCAGCCUCCUCGCUGGCGCCGGCUGGGCAUCAUUCCGAGGGGACCGUCCCCUCGGUAAAGGCGAAUGGGACCCA [A43U U72A]	0.194
